{"source": "patent US6528295", "target": "methylated PP2A C subunit (epitope-tagged, immunoprecipitated), P67775", "sequence (P67775 whole entry)": "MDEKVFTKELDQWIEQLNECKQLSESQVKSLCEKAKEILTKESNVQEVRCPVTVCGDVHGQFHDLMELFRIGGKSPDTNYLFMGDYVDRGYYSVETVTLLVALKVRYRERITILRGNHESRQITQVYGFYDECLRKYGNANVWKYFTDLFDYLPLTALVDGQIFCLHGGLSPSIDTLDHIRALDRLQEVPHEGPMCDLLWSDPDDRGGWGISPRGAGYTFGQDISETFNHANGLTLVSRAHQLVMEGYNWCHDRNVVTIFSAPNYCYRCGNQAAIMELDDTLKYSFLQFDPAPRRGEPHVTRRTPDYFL", "data": [{"protein": "recombinant human Protein Phosphatase Methylesterase-1 (PME-1) (protein) MSALEKSMHLGRLPSRPPLPGSGGSQSGAKMRMGPGRKRDFSPVPWSQYFESMEDVEVENETGKDTFRVYKSGSEGPVLLLLHGGGHSALSWAVFTAAIISRVQCRIVALDLRSHGETKVKNPEDLSAETMAKDVGNVVEAMYGDLPPPIMLIGHSMGGAIAVHTASSNLVPSLLGLCMIDVVEGTAMDALNSMQNFLRGRPKTFKSLENAIEWSVKSGQIRNLESARVSMVGQVKQCEGITSPEGSKSIVEGIIEEEEEDEEGSESISKRKKEDDMETKKDHPYTWRIELAKTEKYWDGWFRGLSNLFLSCPIPKLLLLAGVDRLDKDLTIGQMQGKFQMQVLPQCGHAVHEDAPDKVAEAVATFLIRHRFAEPIGGFQCVFPGC", "values": [{"measurement": "PP2A methylesterase activity: demethylation of immunoprecipitated C subunit, immunoblot with methylation-sensitive antibody 4b7", "result": "human PME-1 is a PP2A methylesterase"}, {"measurement": "amount of 3H-methyl groups remaining on C subunit after 1 h at 32° C., SDS-PAGE", "result": "PME-1 was clearly able to demethylate PP2A C subunit as measured by this assay"}, {"measurement": "methylesterase activity towards PP2A C subunit", "result": "lysates of bacteria expressing PME-1 contain a PP2A methylesterase activity not found in bacterial lysates lacking PME-1"}, {"measurement": "signal of the antibody that only recognizes unmethylated PP2A against a methylation-insensitive antibody, immunoblot", "result": "PME-1 was clearly able to demethylate PP2A C subunit, as measured by this assay"}]}]}
